Data on 2 molecules can be found in paper PMC11218660, “Functional dissection of human cardiac enhancers and noncoding de novo variants in congenital heart disease”.

The target in this series is T1, SRF (human, UniProt P11831 1-508).
T1 sequence: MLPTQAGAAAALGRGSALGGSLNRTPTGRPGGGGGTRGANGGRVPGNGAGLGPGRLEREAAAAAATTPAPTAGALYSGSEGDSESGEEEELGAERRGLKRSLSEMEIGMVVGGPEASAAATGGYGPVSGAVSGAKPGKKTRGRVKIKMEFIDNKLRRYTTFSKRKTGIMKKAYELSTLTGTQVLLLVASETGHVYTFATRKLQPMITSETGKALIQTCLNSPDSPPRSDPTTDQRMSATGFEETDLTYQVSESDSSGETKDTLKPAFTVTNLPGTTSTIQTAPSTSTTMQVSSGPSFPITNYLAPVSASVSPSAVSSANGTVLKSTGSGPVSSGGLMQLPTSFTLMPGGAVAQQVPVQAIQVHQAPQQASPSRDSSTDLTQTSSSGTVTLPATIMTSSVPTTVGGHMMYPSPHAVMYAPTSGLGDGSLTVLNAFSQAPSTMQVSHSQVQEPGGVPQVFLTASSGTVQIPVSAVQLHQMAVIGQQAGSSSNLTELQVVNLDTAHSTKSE
The series can be described thus: EMSA; EMSA: 150 mM KCl, 0.1 mM DTT, 0.1 mM EDTA, 10 mM Tris pH 7.4; 500-800 fmol probe, 0.1-2.0 ug protein in 15-20 ul; room temperature 20 min; 6% native PAGE, SYBR. The settings on record: protein: recombinant; chain copies: 2; blunt. Background: A gel shift assay detects complexes by their altered migration in electrophoresis.

B1: ADAMTS6-CRE ALT (dsDNA)
DNA 1: AATGCATCTGCTTGCTTCATTTGGCAGATTCCTCAAGAGT
DNA 2: ACTCTTGAGGAATCTGCCAAATGAAGCAAGCAGATGCATT
For B1, the binding result is “binds”.

B2: GLB1L3-CRE REF (dsDNA)
DNA 1: GAGGGAGGGGAGCGATCTCTCCTTTCTTGGAGAAAATAGTATCGC
DNA 2: GCGATACTATTTTCTCCAAGAAAGGAGAGATCGCTCCCCTCCCTC
In the case of B2, the binding result is reported as “binds”.
